From the supplement of paper PMC9732359
± gives the uncertainty stated by the source.

experiment: protein stability index of a GFP-peptide fusion (yeast GPS) (PSI 1-4); higher = more stable; sorted into four equal gates, so the index is relative within each strain; conditions: ubr1∆
Method in brief: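 The protein stability index of a peptide was calculated by multiplying its read frequency in each gate by that gate's number and adding the products. The peptides were tiled 17-residue stretches of yeast proteins, fused downstream of GFP on a Cherry-expressing plasmid and carried in yeast as a pooled library. Mid-log cultures in leucine-free medium were sorted into four equal gates by GFP/Cherry ratio, and each gate's plasmids were PCR-amplified and Illumina-sequenced.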

Compared with RNEDARRNLRYGDRMKL [RPO31], RNEKRMFLEFQSTQTDL [SMC2] is lower in protein stability index: 3.38 ± 0.065 for the first, 2.61 ± 0.12 for the second.

First: RNLNNLKQENAYLLIRR [RPB8]
Second: RNNVMLLIATNLKEYNK [SRB8]
The protein stability index of the first is higher: 3 ± 0.054 for the first, 2.21 ± 0.072 for the second.

First: RNSKLLNTKSIQIDEET [MCD1]
Second: RNSNPENTVGLISGAGA [RPN10]
The protein stability index of the first is higher: 3.33 ± 0.12 for the first, 2.06 ± 0.069 for the second.

RNVGKTLVNKSTGLKNA [RPS1B] and RNVGKTLVNKSTGLKSA [RPS1A] are the same in protein stability index: 2.96 ± 0.086 for the first, 2.96 ± 0.086 for the second.

RNVTKGDIVRMLETAGF [SMC3] and RPDGVHVINVGKTWEKL [RPS0A] are within error of each other in protein stability index: 3.19 ± 0.07 for the first, 3.04 ± 0.081 for the second.

Compared with RPDIVHTVFTSVNKNKR [RPL4A], RPEQLSNIIHDESDTIS [SNF6] is higher in protein stability index: 1.4 ± 0.12 for the first, 2.32 ± 0.061 for the second.

First: RPFGVALLIAGHDADDG [PUP2]
Second: RPLPQWIRLRTNNTIRY [RPL39]
The protein stability index of the first is higher: 2.6 ± 0.14 for the first, 1.62 ± 0.052 for the second.

First: RPNLPTHNFKLSGVSNS [RGR1]
Second: RQCFREKANDIGFHKYR [RPS29B]
The protein stability index of the first is lower: 2.12 ± 0.054 for the first, 2.88 ± 0.1 for the second.

Compared with RQQQENSSKIITLDLSN [SMC1], RRAAYGVVRYVMESGAK [RPS3] is lower in protein stability index: 3.18 ± 0.061 for the first, 1.84 ± 0.094 for the second.

RRILPKPSRTSRQVQKR [RPS7A] and RRISSMPGGYFHSEISP [YAR002W/NUP60] are within error of each other in protein stability index: 3.35 ± 0.14 for the first, 3.17 ± 0.14 for the second.

Compared with RRKFDPSSSENVMTPRE [UBP6], RRRREGKTDYYQRKRLV [RPL5] is higher in protein stability index: 2.96 ± 0.23 for the first, 3.26 ± 0.035 for the second.

First: RRSTPFSKIAEYYRIQK [ESC2]
Second: RRVPKELAVENPLAKTM [SEC65]
The protein stability index of the first is higher: 2.94 ± 0.11 for the first, 1.69 ± 0.026 for the second.

RSDSYMLHKVLENKADP [RPT6] and RSEKSTTNAQTKKLIQK [SRP54] are within error of each other in protein stability index: 2.83 ± 0.091 for the first, 2.94 ± 0.098 for the second.

Compared with RSGSNAAASLPSKKLKT [RPC82], RSINNLIQEHDSRKNRE [BRN1] is higher in protein stability index: 2.76 ± 0.033 for the first, 3.38 ± 0.053 for the second.

Compared with RSKNLIFNGETLEDALR [GRR1], RSMLTVVRNMLALTTLS [YCG1] is lower in protein stability index: 2.77 ± 0.07 for the first, 2.49 ± 0.063 for the second.

RSRMLPTITLDDVYRPA [SNF5] and RSTDVWYEASTWIQQFK [ARP7] are within error of each other in protein stability index: 3.06 ± 0.077 for the first, 2.97 ± 0.13 for the second.

Compared with RTFRLNECVCTPYNADF [RPO31], RTKTPGPGGQAALRALA [RPS14B] is higher in protein stability index: 2.28 ± 0.065 for the first, 2.46 ± 0.08 for the second.

RTMDDIKDSVREVGTKF [ECM29] and RVADEDANLNDLPETGF [IRR1] are within error of each other in protein stability index: 3.29 ± 0.072 for the first, 3.13 ± 0.089 for the second.

Compared with RVARRNAARKAEASGEA [RPS9A], RVFRTRFQDGTSVVSIM [SMC2] is lower in protein stability index: 3 ± 0.098 for the first, 2.31 ± 0.087 for the second.

Going from RVHDQPLIWQLLQSSII [POP3] to RVKDPQWLIMLGICTHL [RIP1], the protein stability index rises from 1.7 ± 0.028 to 2.91 ± 0.045.

Going from RVKIANTSAATVHTATS [SSN2] to RVLTQDGRVYIGQLMAF [SMB1], the protein stability index rises from 2.52 ± 0.094 to 3.05 ± 0.041.

Going from RVNLSENTPEPDLPALE [SMC4] to RVWAEYATKRQEAIQQN [PRP8], the protein stability index falls from 2.83 ± 0.11 to 2.2 ± 0.096.

Going from RYADAGNIDTKNNILGS [RRP43] to RYKFPGQQKIILSKKWG [RPL10], the protein stability index falls from 3.04 ± 0.049 to 2.29 ± 0.21.

Going from RYKPGTVALREIRRFQK [HHT1] to RYSRQFINNVLSNPSNQ [GRR1], the protein stability index falls from 3.07 ± 0.078 to 2.07 ± 0.076.

First: SAAGNKAIPTFSFGKPF [YIL149C/MLP2]
Second: SAAKASQSRSAKAGLTF [HTA1]
The protein stability index of the first is lower: 2.96 ± 0.034 for the first, 3.05 ± 0.034 for the second.

Compared with SAIDVLDPLTKDPVDFV [RPN2], SAKMILLSDPTITIKSY [PRP8] is lower in protein stability index: 3.12 ± 0.096 for the first, 2.92 ± 0.069 for the second.

First: SALIENNLFRIIAELSF [YJL039C/NUP192]
Second: SANVELFKRDCNQMENL [YCS4]
The protein stability index of the first is lower: 2.53 ± 0.052 for the first, 3.35 ± 0.074 for the second.

Compared with SAPAPAAAAPAPVAAAA [FAS2], SASHILIPASDLSWSKQ [PRP8] is lower in protein stability index: 3.28 ± 0.29 for the first, 1.95 ± 0.038 for the second.

Going from SAVIIDEFKDITKEVTQ [YIL149C/MLP2] to SAYEASMVYSNVGELIE [RRP4], the protein stability index falls from 2.8 ± 0.068 to 1.85 ± 0.048.

Going from SCGYPSAKTRSHNWAAK [RPL37B] to SCISISDIISMLQISDD [RRI2], the protein stability index falls from 2.91 ± 0.069 to 1.14 ± 0.04.

SCTLLERGHPKDNARIY [POP1] and SDGEDGHIPWHILAVKK [SSN2] are within error of each other in protein stability index: 2.99 ± 0.063 for the first, 3.16 ± 0.15 for the second.

Compared with SDGQSRVKDIHLRKLLD [RET1], SDKPSLPSAVDGENDKK [YLR335W/NUP2] is higher in protein stability index: 2.99 ± 0.043 for the first, 3.35 ± 0.11 for the second.

SDNIASLQYINIRGNTI [SMD1] and SDPAAKKTATEPKQKAN [SRP21] are the same in protein stability index: 3.01 ± 0.048 for the first, 3.01 ± 0.11 for the second.

Compared with SDPNNQSLNEMVKLIVM [YJL039C/NUP192], SDSLGPDTSNEICDLAY [SRB2] is higher in protein stability index: 2.35 ± 0.056 for the first, 3.31 ± 0.049 for the second.

SDWNPQADLQAMDRAHR [ISW2] and SEDVSRDHEKDTYRTLM [YIL149C/MLP2] are within error of each other in protein stability index: 3.39 ± 0.18 for the first, 3.33 ± 0.047 for the second.

SEEPTDFGFDLDIEKEA [MCD1] and SEKQNDEEAAGASTVMK [PRP8] are within error of each other in protein stability index: 3.24 ± 0.14 for the first, 3.43 ± 0.11 for the second.

First: SELIRTTLDAEKVFTQG [FAS1]
Second: SELQRLSHENNVMLEKI [RPT5]
The protein stability index of the first is higher: 3.08 ± 0.07 for the first, 2.9 ± 0.051 for the second.

Compared with SENRDKFLQEFINLLLN [IRR1], SESKQLGNTSSVANTPS [SWI3] is higher in protein stability index: 2.21 ± 0.069 for the first, 2.94 ± 0.046 for the second.

First: SESVGAFLSFLAYRNYW [YJL039C/NUP192]
Second: SEVLVDTLDSKSNGSSD [ISW2]
The protein stability index of the first is lower: 1.84 ± 0.084 for the first, 3.04 ± 0.058 for the second.

Compared with SFFIASQLQEQFNKILP [FAS1], SFKGSPNERKAKQAKIR [SNF2] is higher in protein stability index: 2.77 ± 0.07 for the first, 3.12 ± 0.15 for the second.

Compared with SFQKNSLHNTEKIMENK [AAR2], SFSDENSDDFFMDNSYD [ESC2] is lower in protein stability index: 2.96 ± 0.049 for the first, 1.81 ± 0.062 for the second.

First: SFYDAIFFNIPLVAHLG [YJL039C/NUP192]
Second: SGEPIIAATQDFITGSY [RPO31]
The protein stability index of the first is lower: 1.22 ± 0.034 for the first, 3.18 ± 0.039 for the second.

Going from SGHFSTDSRTGQSTILV [CDC53] to SGITDPYEMYKYVHVSE [FAS2], the protein stability index falls from 3.11 ± 0.042 to 2.4 ± 0.069.

SGLFVDVKKRTYEAIDV [RPB2] and SGNIQLDEIIEIARQMR [RPL12A] are within error of each other in protein stability index: 3.14 ± 0.097 for the first, 3.35 ± 0.14 for the second.

Going from SGNTNGAGSAFGFSSSG [YOR098C/NUP1] to SGQTFAYGVLDSNYKWD [PRE2], the protein stability index falls from 3.02 ± 0.087 to 2.7 ± 0.11.

SGRCDGYILEGEELAFY [RPS8A] and SGTSSDPDTKKVKESPA [YIL149C/MLP2] are within error of each other in protein stability index: 3.36 ± 0.074 for the first, 3.23 ± 0.061 for the second.

Going from SGTYHLNCGNGMGIGFI [POP1] to SGYVRSRGESDDSLNRL [RPS21A], the protein stability index falls from 3.11 ± 0.041 to 2.88 ± 0.059.

Compared with SHFVSAVSTIASISLAI [RPP0], SHGNPVVDFLKRNGSTL [FAS1] is higher in protein stability index: 1.11 ± 0.066 for the first, 3.11 ± 0.038 for the second.

Going from SHILNSHSLALNEITNS [DSN1] to SHKTTKEDTVSWFKQKY [RPL11A], the protein stability index falls from 2.36 ± 0.03 to 1.53 ± 0.064.

Work on SHNWAAKAKRRHTTGTG [RPL37B] yielded a protein stability index of 3.35 ± 0.056.
